According to US20040191820, “Protection-of telomere-1 (POT-1) protein and encoding polynucleotides” (The Regents of the University of Colorado, published 2004):

Legend:
[1] = molecular target: T1, hPot1p (Homo sapiens, UniProt Q9NUX5 SEQ:1-634); assay: listed as hPot1p-binding; settings: tags: N-terminal His6 (pQE30), E. coli
T1 chain: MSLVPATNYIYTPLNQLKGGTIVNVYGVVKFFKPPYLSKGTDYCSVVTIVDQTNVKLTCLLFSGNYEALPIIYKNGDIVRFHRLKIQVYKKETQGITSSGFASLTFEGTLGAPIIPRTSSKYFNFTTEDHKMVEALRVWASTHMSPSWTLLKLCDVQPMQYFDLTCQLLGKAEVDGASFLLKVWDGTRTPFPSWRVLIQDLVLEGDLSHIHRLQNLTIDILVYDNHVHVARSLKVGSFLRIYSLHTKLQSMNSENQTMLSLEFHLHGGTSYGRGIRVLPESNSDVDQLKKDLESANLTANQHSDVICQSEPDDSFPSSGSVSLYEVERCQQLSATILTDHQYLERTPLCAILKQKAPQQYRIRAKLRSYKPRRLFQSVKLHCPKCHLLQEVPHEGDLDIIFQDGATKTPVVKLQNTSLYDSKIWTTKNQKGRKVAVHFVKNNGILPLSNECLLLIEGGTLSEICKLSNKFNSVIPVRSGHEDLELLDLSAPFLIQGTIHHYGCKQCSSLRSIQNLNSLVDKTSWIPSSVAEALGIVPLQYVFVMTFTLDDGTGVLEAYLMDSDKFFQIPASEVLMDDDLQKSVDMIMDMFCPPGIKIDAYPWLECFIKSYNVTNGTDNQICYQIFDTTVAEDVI

[2] = molecular target: T1, hPot1p; assay: EMSA; conditions as for SpPot1p; settings: tags: N-terminal His6 (pQE30), E. coli

B1: PBoli178 (ssDNA)
DNA: GGTTAGGGTTAGGGTTAGGG
- binding result [1]: binds

B2: human G-strand (TTAGGG)5 (PBoli179) (ssDNA)
DNA: TTAGGGTTAGGGTTAGGGTTAGGGTTAGGG
- binding result [2]: binds

B3: PBoli177 (ssDNA)
DNA: TTAGGGTTAGGGTTAGGGTT
- binding result [1]: binds
